Assay results as given in US20170100490A1, “Prodrug Comprising a Drug Linker Conjugate” (Ascendis Pharma A/S, priority 2008, published 2017).

Assays:
physchem = settings: buffer A (phosphate buffer), pH 7.4
Experimental: In vitro linker hydrolysis and release of drug: Compounds were dissolved in buffer A (10 mM sodium phosphate, 140 mM NaCl, pH 7.4, 3 mM EDTA) or buffer B (0.1 M Acetat 3 mM EDTA, pH 4.0), and solution was filtered through a 0.2 μm filter and incubated at 37° C. Samples were taken at time intervals and analyzed by RP-HPLC at 215 nm and ESI-MS. UV-signals correlating to liberated drug molecule were integrated and plotted against incubation time. In case of identical retention times of prodrug and drug, ratio of mass signals was used to determine release kinetics.
For hydrogel conjugates, compounds were suspended in buffer A and incubated at 37° C. Samples were taken after centrifugation of the suspension and analyzed by RP-HPLC at 215 nm. UV-signals correlating to liberated drug molecule were integrated and plotted against incubation time.
Curve-fitting software was applied to estimate the corresponding halftime of release.

[1] = human, in vivo; cited from earlier work

Row | Compound | half-life (physchem) | Plasma half-life [1]
1 | CCCCCCCCCCCC(=O)NC(CCCCNC(=O)CCOCCOCCOCCOCCOCCOCCOCCOCCOCCOCCOCCOCCNC(=O)CCN1C(=O)CC(SCCNC(=O)CN2CCN(CCNC(=O)[C@@H]3CCCC[C@@H]3C(=O)N3CCN(C4=Nc5ccccc5Oc5ccc(Cl)cc54)CC3)CC2)C1=O)C(N)=O (some centres unmarked) [Compound 5] | 22 h | –
2 | Exendin-4: GLP-1 receptor agonist peptide; high potency agonist at the glucagon-like peptide 1-(7-36)-amide receptor | – | 0.433 h
